Data as given in PMC9482650, “Quantitative fragmentomics allow affinity mapping of interactomes” (Nature Communications, 2022).
Positions count from the first letter of the chain named.

Key:
Test in all cases: holdup assay
Design in all cases: key: below the threshold = too weak to quantify, mostly under pKd 3.1 to 4
SCRIB_3, Q14160 = target: SCRIB_3, Q14160
TJP1_2, Q07157 = target: TJP1_2, Q07157
SCRIB_1, Q14160 = target: SCRIB_1, Q14160
ARHGEF12, Q9NZN5-2 = target: ARHGEF12, Q9NZN5-2
PTPN3, P26045 = target: PTPN3, P26045
LNX1_1, Q8TBB1 = target: LNX1_1, Q8TBB1
TJP3_3, O95049 = target: T1, TJP3_3, O95049
T1 sequence (O95049 375-456, limits assumed, looked up): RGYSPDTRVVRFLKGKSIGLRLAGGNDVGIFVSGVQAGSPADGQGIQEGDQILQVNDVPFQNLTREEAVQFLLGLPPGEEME

SCRIB_2, Q14160 = target: SCRIB_2, Q14160
LIN7C, Q9NUP9 = target: T2, LIN7C, Q9NUP9
T2 sequence (Q9NUP9 88-185, limits assumed, looked up): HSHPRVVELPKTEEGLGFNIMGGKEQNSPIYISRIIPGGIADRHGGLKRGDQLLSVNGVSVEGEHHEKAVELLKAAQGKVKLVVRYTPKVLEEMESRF

MAST1, Q9Y2H9 = target: MAST1, Q9Y2H9
GORASP1, Q9BQQ3 = target: GORASP1, Q9BQQ3
GRIP1_7, Q9Y3R0 = target: T3, GRIP1_7, Q9Y3R0
T3 sequence (Q9Y3R0 999-1096, limits assumed, looked up): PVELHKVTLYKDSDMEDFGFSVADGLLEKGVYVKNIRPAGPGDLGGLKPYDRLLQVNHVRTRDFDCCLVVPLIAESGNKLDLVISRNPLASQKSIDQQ

DLG3_3, Q92796 = target: T4, DLG3_3, Q92796
T4 sequence (Q92796 374-475, limits assumed, looked up): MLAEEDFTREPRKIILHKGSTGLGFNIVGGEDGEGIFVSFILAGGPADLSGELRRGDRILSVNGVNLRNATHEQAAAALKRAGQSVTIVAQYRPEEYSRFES

MAST2, Q6P0Q8 = target: MAST2, Q6P0Q8
LIN7B, Q9HAP6 = target: T5, LIN7B, Q9HAP6
T5 sequence (Q9HAP6 88-185, limits assumed, looked up): T2 sequence (Q9NUP9 88-185, limits assumed, looked up) with S2A, E13D, I35V, I40V, H65Q, K79S, K89R, S96A

CASK, O14936 = target: CASK, O14936
MAGI2_5, Q86UL8 = target: MAGI2_5, Q86UL8
SNX27, Q96L92 = target: SNX27, Q96L92
SNTG2, Q9NY99 = target: T6, SNTG2, Q9NY99
T6 sequence (Q9NY99 68-166, limits assumed, looked up): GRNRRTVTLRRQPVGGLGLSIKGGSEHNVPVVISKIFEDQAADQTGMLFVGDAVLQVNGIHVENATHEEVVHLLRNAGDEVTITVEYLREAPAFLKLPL

MAGI2_3, Q86UL8 = target: MAGI2_3, Q86UL8
GRIP1_2, Q9Y3R0 = target: T7, GRIP1_2, Q9Y3R0
T7 sequence (Q9Y3R0 145-248, limits assumed, looked up): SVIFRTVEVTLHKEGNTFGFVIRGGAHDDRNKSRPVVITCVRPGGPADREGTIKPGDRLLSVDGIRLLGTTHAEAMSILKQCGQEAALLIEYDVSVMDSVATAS

NHERF4_1, Q86UT5-2 = target: NHERF4_1, Q86UT5-2
PDLIM1, O00151 = target: PDLIM1, O00151
AHNAK1, Q09666 = target: AHNAK1, Q09666
MAGI3_2, Q5TCQ9 = target: MAGI3_2, Q5TCQ9
Inadl_8, Q8NI35 = target: Inadl_8, Q8NI35
NHERF2_2, Q15599 = target: NHERF2_2, Q15599
APBA1_1, Q02410 = target: T8, APBA1_1, Q02410
T8 sequence (Q02410 651-752, limits assumed, looked up): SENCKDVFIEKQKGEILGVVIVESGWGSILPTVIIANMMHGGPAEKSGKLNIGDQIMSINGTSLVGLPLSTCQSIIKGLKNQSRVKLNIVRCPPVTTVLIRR

PARD3_3, Q8TEW0 = target: PARD3_3, Q8TEW0
Inadl_1, Q8NI35 = target: Inadl_1, Q8NI35
HTRA2, O43464 = target: HTRA2, O43464
[1] = plain residues with an end cap or a label only (N-terminal biotin on a linker: ttds)
[2] = plain residues with an end cap or a label only (N-terminal biotin on a linker: ado-ado)

Chain of Inadl_8, Q8NI35 (Q8NI35 1425-1530): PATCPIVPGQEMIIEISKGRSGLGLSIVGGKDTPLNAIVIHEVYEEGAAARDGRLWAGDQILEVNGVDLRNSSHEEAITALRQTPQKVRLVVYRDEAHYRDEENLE
Chain of HTRA2, O43464 (O43464 355-458): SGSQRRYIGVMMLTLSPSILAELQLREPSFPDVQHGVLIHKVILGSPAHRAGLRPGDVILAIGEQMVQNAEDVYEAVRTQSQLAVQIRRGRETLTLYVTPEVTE
Chain of AHNAK1, Q09666 (Q09666 4-100): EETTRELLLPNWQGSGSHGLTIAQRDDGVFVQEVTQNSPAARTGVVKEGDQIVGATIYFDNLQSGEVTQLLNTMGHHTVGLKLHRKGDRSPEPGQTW
Chain of PTPN3, P26045 (P26045 505-587): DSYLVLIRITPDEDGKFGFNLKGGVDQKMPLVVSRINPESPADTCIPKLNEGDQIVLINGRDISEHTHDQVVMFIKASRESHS
Chain of LNX1_1, Q8TBB1 (Q8TBB1 261-371): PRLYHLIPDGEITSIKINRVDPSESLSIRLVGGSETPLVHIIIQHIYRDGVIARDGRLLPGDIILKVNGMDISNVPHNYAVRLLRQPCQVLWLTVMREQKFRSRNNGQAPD
Chain of NHERF2_2, Q15599 (Q15599 142-238): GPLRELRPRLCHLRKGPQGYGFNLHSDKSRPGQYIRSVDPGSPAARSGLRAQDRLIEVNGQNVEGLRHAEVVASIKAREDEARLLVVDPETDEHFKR
Chain of SCRIB_2, Q14160 (Q14160 857-960): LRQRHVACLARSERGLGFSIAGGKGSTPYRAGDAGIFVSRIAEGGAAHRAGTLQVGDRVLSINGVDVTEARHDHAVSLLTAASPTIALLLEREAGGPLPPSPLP
Chain of PDLIM1, O00151 (O00151 1-87): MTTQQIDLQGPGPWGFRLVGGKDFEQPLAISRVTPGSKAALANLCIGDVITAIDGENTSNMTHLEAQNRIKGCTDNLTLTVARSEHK
Chain of MAGI2_5, Q86UL8 (Q86UL8 915-1017): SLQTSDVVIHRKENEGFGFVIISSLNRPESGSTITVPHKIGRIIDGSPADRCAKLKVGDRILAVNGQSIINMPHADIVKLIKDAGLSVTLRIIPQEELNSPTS
Chain of CASK, O14936 (O14936 487-570): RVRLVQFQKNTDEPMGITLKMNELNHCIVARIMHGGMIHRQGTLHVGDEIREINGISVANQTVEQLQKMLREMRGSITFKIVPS
Chain of PARD3_3, Q8TEW0 (Q8TEW0 582-685): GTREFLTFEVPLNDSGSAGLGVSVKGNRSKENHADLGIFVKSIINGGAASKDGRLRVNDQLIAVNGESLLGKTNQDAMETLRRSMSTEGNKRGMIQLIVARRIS
Chain of MAGI2_3, Q86UL8 (Q86UL8 600-682): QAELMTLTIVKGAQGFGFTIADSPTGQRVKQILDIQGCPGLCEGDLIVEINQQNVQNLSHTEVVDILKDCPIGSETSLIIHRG
Chain of MAST2, Q6P0Q8 (Q6P0Q8 1099-1202): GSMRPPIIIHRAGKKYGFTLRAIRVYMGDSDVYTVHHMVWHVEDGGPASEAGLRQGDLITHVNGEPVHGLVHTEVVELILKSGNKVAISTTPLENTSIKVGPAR
Chain of NHERF4_1, Q86UT5-2 (Q86UT5 other isoform, or with tags, fused parts or gaps): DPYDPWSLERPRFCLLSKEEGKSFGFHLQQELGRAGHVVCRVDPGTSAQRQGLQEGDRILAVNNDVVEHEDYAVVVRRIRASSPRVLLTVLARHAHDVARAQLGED
Chain of MAGI3_2, Q5TCQ9 (Q5TCQ9 398-503): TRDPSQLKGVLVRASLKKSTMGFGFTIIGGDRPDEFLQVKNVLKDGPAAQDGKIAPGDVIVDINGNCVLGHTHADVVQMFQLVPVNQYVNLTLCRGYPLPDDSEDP
Chain of Inadl_1, Q8NI35 (Q8NI35 113-229): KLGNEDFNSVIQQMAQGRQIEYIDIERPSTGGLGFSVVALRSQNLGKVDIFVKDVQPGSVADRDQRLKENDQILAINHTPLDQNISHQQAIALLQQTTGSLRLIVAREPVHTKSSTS
Chain of SCRIB_3, Q14160 (Q14160 999-1103): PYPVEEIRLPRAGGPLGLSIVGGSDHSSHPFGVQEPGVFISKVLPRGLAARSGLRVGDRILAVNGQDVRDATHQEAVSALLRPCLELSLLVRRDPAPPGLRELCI
Chain of ARHGEF12, Q9NZN5-2 (Q9NZN5 other isoform, or with tags, fused parts or gaps): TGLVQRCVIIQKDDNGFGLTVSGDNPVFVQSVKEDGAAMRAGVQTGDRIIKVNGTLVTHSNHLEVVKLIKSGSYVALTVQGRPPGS
Chain of GORASP1, Q9BQQ3 (Q9BQQ3 1-208): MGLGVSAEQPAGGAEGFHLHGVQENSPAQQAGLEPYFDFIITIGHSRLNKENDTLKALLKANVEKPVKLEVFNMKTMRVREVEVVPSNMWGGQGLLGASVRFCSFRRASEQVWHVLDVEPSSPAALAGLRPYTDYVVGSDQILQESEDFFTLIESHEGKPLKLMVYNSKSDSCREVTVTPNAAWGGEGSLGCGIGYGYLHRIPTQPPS
Chain of TJP1_2, Q07157 (Q07157 181-274): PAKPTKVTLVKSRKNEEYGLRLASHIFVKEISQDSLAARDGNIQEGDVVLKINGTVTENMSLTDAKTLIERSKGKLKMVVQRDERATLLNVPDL
Chain of SCRIB_1, Q14160 (Q14160 718-814): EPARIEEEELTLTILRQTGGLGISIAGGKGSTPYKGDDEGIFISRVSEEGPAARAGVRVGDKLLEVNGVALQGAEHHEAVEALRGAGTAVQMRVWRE
Chain of MAST1, Q9Y2H9 (Q9Y2H9 962-1065): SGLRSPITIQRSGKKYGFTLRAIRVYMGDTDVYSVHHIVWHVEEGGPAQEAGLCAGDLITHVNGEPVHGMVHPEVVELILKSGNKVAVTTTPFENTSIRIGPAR

MERLRVETDV [ARHGEF16, Q5VV41]
pKd (SCRIB_3, Q14160; [1]): 5.21 | pKd (TJP1_2, Q07157; [1]): below the threshold | pKd (SCRIB_1, Q14160; [1]): 4.58 | pKd (ARHGEF12, Q9NZN5-2; [1]): 4.22 | pKd (PTPN3, P26045; [1]): 4.38 | pKd (LNX1_1, Q8TBB1; [1]): 4.03 | pKd (TJP3_3, O95049; [1]): below the threshold | pKd (SCRIB_2, Q14160; [1]): 5.01 | pKd (LIN7C, Q9NUP9; [1]): below the threshold | pKd (MAST1, Q9Y2H9; [1]): 4.39 | pKd (GORASP1, Q9BQQ3; [1]): below the threshold | pKd (GRIP1_7, Q9Y3R0; [1]): below the threshold | pKd (DLG3_3, Q92796; [1]): 3.88 | pKd (MAST2, Q6P0Q8; [1]): 5.56 | pKd (LIN7B, Q9HAP6; [1]): below the threshold | pKd (CASK, O14936; [1]): below the threshold | pKd (MAGI2_5, Q86UL8; [1]): below the threshold | pKd (SNX27, Q96L92; [1]): 4.17 | pKd (SNTG2, Q9NY99; [1]): 4.47 | pKd (MAGI2_3, Q86UL8; [1]): 3.53 | pKd (GRIP1_2, Q9Y3R0; [1]): below the threshold | pKd (NHERF4_1, Q86UT5-2; [1]): below the threshold | pKd (PDLIM1, O00151; [1]): 4 | pKd (AHNAK1, Q09666; [1]): 3.6 | pKd (MAGI3_2, Q5TCQ9; [1]): 4.6 | pKd (Inadl_8, Q8NI35; [1]): 3.53 | pKd (NHERF2_2, Q15599; [1]): below the threshold | pKd (APBA1_1, Q02410; [1]): below the threshold | pKd (PARD3_3, Q8TEW0; [1]): below the threshold | pKd (Inadl_1, Q8NI35; [1]): below the threshold | pKd (HTRA2, O43464; [1]): below the threshold

IQREDQETAV [DGKZ, Q13574]
pKd (SCRIB_3, Q14160; [1]): 5.05 | pKd (TJP1_2, Q07157; [1]): below the threshold | pKd (SCRIB_1, Q14160; [1]): 4.71 | pKd (ARHGEF12, Q9NZN5-2; [1]): 4.22 | pKd (PTPN3, P26045; [1]): 5.12 | pKd (LNX1_1, Q8TBB1; [1]): below the threshold | pKd (TJP3_3, O95049; [1]): below the threshold | pKd (SCRIB_2, Q14160; [1]): 4.86 | pKd (LIN7C, Q9NUP9; [1]): 4.49 | pKd (MAST1, Q9Y2H9; [1]): 4.57 | pKd (GORASP1, Q9BQQ3; [1]): below the threshold | pKd (GRIP1_7, Q9Y3R0; [1]): 3.74 | pKd (DLG3_3, Q92796; [1]): 4.42 | pKd (MAST2, Q6P0Q8; [1]): 5.76 | pKd (LIN7B, Q9HAP6; [1]): 4.09 | pKd (CASK, O14936; [1]): below the threshold | pKd (MAGI2_5, Q86UL8; [1]): 4.69 | pKd (SNX27, Q96L92; [1]): 6 | pKd (SNTG2, Q9NY99; [1]): 4.95 | pKd (MAGI2_3, Q86UL8; [1]): 4.45 | pKd (GRIP1_2, Q9Y3R0; [1]): below the threshold | pKd (NHERF4_1, Q86UT5-2; [1]): below the threshold | pKd (PDLIM1, O00151; [1]): below the threshold | pKd (AHNAK1, Q09666; [1]): below the threshold | pKd (MAGI3_2, Q5TCQ9; [1]): 4.85 | pKd (Inadl_8, Q8NI35; [1]): below the threshold | pKd (NHERF2_2, Q15599; [1]): 4.01 | pKd (APBA1_1, Q02410; [1]): below the threshold | pKd (PARD3_3, Q8TEW0; [1]): below the threshold | pKd (Inadl_1, Q8NI35; [1]): below the threshold | pKd (HTRA2, O43464; [1]): below the threshold

SVVSERISSV [HTR2C, P28335]
pKd (SCRIB_3, Q14160; [2]): 3.71 | pKd (TJP1_2, Q07157; [2]): below the threshold | pKd (SCRIB_1, Q14160; [2]): below the threshold | pKd (ARHGEF12, Q9NZN5-2; [2]): 4.18 | pKd (PTPN3, P26045; [2]): 4.8 | pKd (LNX1_1, Q8TBB1; [2]): below the threshold | pKd (TJP3_3, O95049; [2]): below the threshold | pKd (SCRIB_2, Q14160; [2]): below the threshold | pKd (LIN7C, Q9NUP9; [2]): below the threshold | pKd (MAST1, Q9Y2H9; [2]): 4.02 | pKd (GORASP1, Q9BQQ3; [2]): below the threshold | pKd (GRIP1_7, Q9Y3R0; [2]): below the threshold | pKd (DLG3_3, Q92796; [2]): below the threshold | pKd (MAST2, Q6P0Q8; [2]): 4.78 | pKd (LIN7B, Q9HAP6; [2]): 3.7 | pKd (CASK, O14936; [2]): below the threshold | pKd (MAGI2_5, Q86UL8; [2]): 4.01 | pKd (SNX27, Q96L92; [2]): 5.06 | pKd (SNTG2, Q9NY99; [2]): below the threshold | pKd (MAGI2_3, Q86UL8; [2]): 4.3 | pKd (GRIP1_2, Q9Y3R0; [2]): below the threshold | pKd (NHERF4_1, Q86UT5-2; [2]): 3.72 | pKd (PDLIM1, O00151; [2]): below the threshold | pKd (AHNAK1, Q09666; [2]): below the threshold | pKd (MAGI3_2, Q5TCQ9; [2]): 4.46 | pKd (Inadl_8, Q8NI35; [2]): 5.14 | pKd (NHERF2_2, Q15599; [2]): below the threshold | pKd (APBA1_1, Q02410; [2]): below the threshold | pKd (PARD3_3, Q8TEW0; [2]): below the threshold | pKd (Inadl_1, Q8NI35; [2]): below the threshold | pKd (HTRA2, O43464; [2]): below the threshold
